Experimental findings from paper PMC7192615, “Structure specific recognition of telomeric repeats containing RNA by the RGG-box of hnRNPA1” are described below.

Series [1] deals with T1, UP1+RGG (UniProt P09651-2 1-249). In words: ITC; 100 mM KCl; ITC/CD: 20 mM Tris pH 8.0, 100 mM KCl, 25 C; NMR: 10 mM potassium phosphate pH 6.5, 100 mM KCl, 298 K (10% D2O for HSQC). The following applies: protein: recombinant, tags: C-terminal 6xHis.
Another series has as its target UP1 (UniProt P09651-2 1-196). The series is described as above. Conditions: protein: recombinant, tags: C-terminal 6xHis.
Series [2] concerns the target T2, RGG-box (isolated) (UniProt P09651-2 197-249). The description is as above. Conditions: protein: recombinant; tags: GST removed by TEV; intramolecular parallel G4.
Series [3] concerns the target T2, RGG-box (isolated). As to the kind of experiment: NMR HSQC CSP titration (global fit); 100 mM KCl; ITC/CD: 20 mM Tris pH 8.0, 100 mM KCl, 25 C; NMR: 10 mM potassium phosphate pH 6.5, 100 mM KCl, 298 K (10% D2O for HSQC). The following applies: protein: recombinant; tags: GST removed by TEV; intramolecular parallel G4.
For series [4], the target named is T1, UP1+RGG. As to the kind of experiment: ITC; 100 mM KCl, 20% PEG 200; ITC/CD: 20 mM Tris pH 8.0, 100 mM KCl, 25 C; NMR: 10 mM potassium phosphate pH 6.5, 100 mM KCl, 298 K (10% D2O for HSQC). Conditions: protein: recombinant; tags: C-terminal 6xHis; intramolecular parallel G4.
Setting [5] is: parallel G4 tetramer of 4 strands, no loops.
The mark [6] stands for this setting: parallel G4 dimer of 2 strands, two loops.

T1 sequence (P09651 1-249): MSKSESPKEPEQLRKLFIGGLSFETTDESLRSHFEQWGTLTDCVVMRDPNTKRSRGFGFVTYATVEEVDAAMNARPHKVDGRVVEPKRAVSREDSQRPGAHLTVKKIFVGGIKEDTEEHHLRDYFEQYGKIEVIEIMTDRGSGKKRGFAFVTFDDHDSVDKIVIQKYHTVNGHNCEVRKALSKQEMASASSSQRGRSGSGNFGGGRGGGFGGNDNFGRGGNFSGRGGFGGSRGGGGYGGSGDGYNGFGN
UP1, sequence (P09651 1-196): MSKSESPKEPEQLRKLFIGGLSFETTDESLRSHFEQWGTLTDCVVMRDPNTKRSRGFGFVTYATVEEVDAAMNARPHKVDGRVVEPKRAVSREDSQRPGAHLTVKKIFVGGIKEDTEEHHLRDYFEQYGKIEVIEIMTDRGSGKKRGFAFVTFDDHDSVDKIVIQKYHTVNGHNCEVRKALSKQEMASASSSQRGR
T2 sequence (P09651 197-249): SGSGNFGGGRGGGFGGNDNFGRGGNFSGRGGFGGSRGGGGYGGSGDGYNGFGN

Regarding GAGUAACCCGUAUCGUGA (ssRNA) [ssRNA-18], the equilibrium dissociation constant (Kd) with UP1+RGG [1] (single strand, 18 nt) was determined as 2.28 ± 0.26 µM; in the series with UP1 (single strand, 18 nt), 2.37 ± 0.49 µM.

In the case of UUAGGG (structured_RNA) [TERRA-6], the dissociation constant Kd with UP1+RGG [1] (setting [5]) worked out at 2.38 ± 0.23 µM; in the series with UP1 (setting [5]), 2.02 ± 0.17 µM.

UUAGGGUUAGGG (structured_RNA) [TERRA-12]: the Kd in the series with UP1+RGG [1] (setting [6]) turned out to be 1.07 ± 0.14 µM; in the series with UP1 (setting [6]) it was 2.04 ± 0.47 µM.

Take UUAGGGUUAGGGUUAGGGUUAGGG (structured_RNA) [TERRA-24]: the Kd in the series with UP1+RGG [1] (intramolecular parallel G4) was 0.92 ± 0.17 µM; with RGG-box (isolated) [2], 9 ± 4.3 µM; in the series with UP1 (intramolecular parallel G4), 1.71 ± 0.17 µM; in the series with RGG-box (isolated) [3] it was 11 ± 1.5 µM; with UP1+RGG [4], 3 ± 0.55 µM.
